One molecule from patent US7598225 can be followed below.

For this experiment, the target named is human HLA A2 molecules (human). The experiment can be described thus: T2 cell binding assay, peptide at 50 ug/ml, surface HLA A2 stained with MAb A2,69, flow cytometry (no peptide: 127.25). Conditions: remark: other sources report otherwise.

B1: PSA peptide 154-163 (peptide)
peptide: VISNDVCAQV
For the molecule B1, the mean channel fluorescent intensity amounted to 182.
